# Square brackets hold non-standard residues; d marks the D form. Ends that are not written are not given here. NMeW = CN[C@@H](Cc1c[nH]c2ccccc12)C(=O)O; Dmt = Cc1cc(O)cc(C)c1C[C@H](N)C(=O)O; NMeY = CN[C@@H](Cc1ccc(O)cc1)C(=O)O; NMeCha = CN[C@@H](CC1CCCCC1)C(=O)O; NMeF = CN[C@@H](Cc1ccccc1)C(=O)O; NMeI = CC[C@H](C)[C@H](NC)C(=O)O; NMePhg = CN[C@H](C(=O)O)c1ccccc1; hPhe = N[C@@H](CCc1ccccc1)C(=O)O; dTic = O=C(O)[C@H]1Cc2ccccc2CN1; β3hF = N[C@H](CC(=O)O)Cc1ccccc1; NMeL = CN[C@@H](CC(C)C)C(=O)O; NMeNle = CCCC[C@H](NC)C(=O)O; NMeNva = CCC[C@H](NC)C(=O)O; NMeV = CN[C@H](C(=O)O)C(C)C; NMeA = CN[C@@H](C)C(=O)O; Nle = CCCC[C@H](N)C(=O)O; Sar = CNCC(=O)O
# B1: H-DMT-(D)Asp-G-bhF-N(Me)-Trp-OH (peptide)
# peptide: H-[Dmt][dD]G[β3hF][NMeW]-OH
# SMILES: Cc1cc(O)cc(C)c1C[C@H](N)C(=O)N[C@H](CC(=O)O)C(=O)NCC(=O)N[C@H](CC(=O)N(C)[C@@H](Cc1c[nH]c2ccccc12)C(=O)O)Cc1ccccc1
# B2: H-DMT-(D)Asp-G-bhF-N(Me)-Phg-OH (peptide)
# peptide: H-[Dmt][dD]G[β3hF][NMePhg]-OH
# SMILES: Cc1cc(O)cc(C)c1C[C@H](N)C(=O)N[C@H](CC(=O)O)C(=O)NCC(=O)N[C@H](CC(=O)N(C)[C@H](C(=O)O)c1ccccc1)Cc1ccccc1
# B3: H-DMT-(D)Asp-G-bhF-N(Me)-Ile-OH (peptide)
# peptide: H-[Dmt][dD]G[β3hF][NMeI]-OH
# SMILES: CC[C@H](C)[C@@H](C(=O)O)N(C)C(=O)C[C@H](Cc1ccccc1)NC(=O)CNC(=O)[C@@H](CC(=O)O)NC(=O)[C@@H](N)Cc1c(C)cc(O)cc1C
# B4: H-DMT-(D)Thr-G-bhF-N(Me)-Ala-OH (peptide)
# peptide: H-[Dmt][dT]G[β3hF][NMeA]-OH
# SMILES: Cc1cc(O)cc(C)c1C[C@H](N)C(=O)N[C@@H](C(=O)NCC(=O)N[C@H](CC(=O)N(C)[C@@H](C)C(=O)O)Cc1ccccc1)[C@H](C)O
# B5: H-DMT-(D)Asp-G-bhF-N(Me)-Leu-OH (peptide)
# peptide: H-[Dmt][dD]G[β3hF][NMeL]-OH
# SMILES: Cc1cc(O)cc(C)c1C[C@H](N)C(=O)N[C@H](CC(=O)O)C(=O)NCC(=O)N[C@H](CC(=O)N(C)[C@@H](CC(C)C)C(=O)O)Cc1ccccc1
# B6: H-DMT-(D)Asp-G-bhF-Gly-NH2 (peptide)
# peptide: H-[Dmt][dD]G[β3hF]G-NH2
# SMILES: Cc1cc(O)cc(C)c1C[C@H](N)C(=O)N[C@H](CC(=O)O)C(=O)NCC(=O)N[C@H](CC(=O)NCC(N)=O)Cc1ccccc1
# B7: H-DMT-(D)Thr-G-bhF-N(Me)-Ile-OH (peptide)
# peptide: H-[Dmt][dT]G[β3hF][NMeI]-OH
# SMILES: CC[C@H](C)[C@@H](C(=O)O)N(C)C(=O)C[C@H](Cc1ccccc1)NC(=O)CNC(=O)[C@H](NC(=O)[C@@H](N)Cc1c(C)cc(O)cc1C)[C@H](C)O
# B8: H-DMT-(D)Asp-G-bhF-N(Me)-Tyr-OH (peptide)
# peptide: H-[Dmt][dD]G[β3hF][NMeY]-OH
# SMILES: Cc1cc(O)cc(C)c1C[C@H](N)C(=O)N[C@H](CC(=O)O)C(=O)NCC(=O)N[C@H](CC(=O)N(C)[C@@H](Cc1ccc(O)cc1)C(=O)O)Cc1ccccc1
# B9: H-DMT-(D)Asp-G-bhF-N(Me)-Phe-OH (peptide)
# peptide: H-[Dmt][dD]G[β3hF][NMeF]-OH
# SMILES: Cc1cc(O)cc(C)c1C[C@H](N)C(=O)N[C@H](CC(=O)O)C(=O)NCC(=O)N[C@H](CC(=O)N(C)[C@@H](Cc1ccccc1)C(=O)O)Cc1ccccc1
# B10: H-DMT-(D)Asp-G-bhF-N(Me)-Cha-OH (peptide)
# peptide: H-[Dmt][dD]G[β3hF][NMeCha]-OH
# SMILES: Cc1cc(O)cc(C)c1C[C@H](N)C(=O)N[C@H](CC(=O)O)C(=O)NCC(=O)N[C@H](CC(=O)N(C)[C@@H](CC1CCCCC1)C(=O)O)Cc1ccccc1
# B11: H-DMT-(D)Asp-G-bhF-N(Me)-Nva-OH (peptide)
# peptide: H-[Dmt][dD]G[β3hF][NMeNva]-OH
# SMILES: CCC[C@@H](C(=O)O)N(C)C(=O)C[C@H](Cc1ccccc1)NC(=O)CNC(=O)[C@@H](CC(=O)O)NC(=O)[C@@H](N)Cc1c(C)cc(O)cc1C
# B12: H-DMT-(D)Glu-G-bhF-N(Me)-Ala-OH (peptide)
# peptide: H-[Dmt][dE]G[β3hF][NMeA]-OH
# SMILES: Cc1cc(O)cc(C)c1C[C@H](N)C(=O)N[C@H](CCC(=O)O)C(=O)NCC(=O)N[C@H](CC(=O)N(C)[C@@H](C)C(=O)O)Cc1ccccc1
# B13: H-DMT-(D)Asp-G-bhF-N(Me)-Ala-OH (peptide)
# peptide: H-[Dmt][dD]G[β3hF][NMeA]-OH
# SMILES: Cc1cc(O)cc(C)c1C[C@H](N)C(=O)N[C@H](CC(=O)O)C(=O)NCC(=O)N[C@H](CC(=O)N(C)[C@@H](C)C(=O)O)Cc1ccccc1
# B14: H-DMT-(D)Asp-G-bhF-N(Me)-Val-OH (peptide)
# peptide: H-[Dmt][dD]G[β3hF][NMeV]-OH
# SMILES: Cc1cc(O)cc(C)c1C[C@H](N)C(=O)N[C@H](CC(=O)O)C(=O)NCC(=O)N[C@H](CC(=O)N(C)[C@H](C(=O)O)C(C)C)Cc1ccccc1
# B15: H-DMT-(D)Glu-G-bhF-Sar-NH2 (peptide)
# peptide: H-[Dmt][dE]G[β3hF][Sar]-NH2
# SMILES: Cc1cc(O)cc(C)c1C[C@H](N)C(=O)N[C@H](CCC(=O)O)C(=O)NCC(=O)N[C@H](CC(=O)N(C)CC(N)=O)Cc1ccccc1
# B16: H-DMT-(D)Glu-G-bhF-N(Me)-Ile-OH (peptide)
# peptide: H-[Dmt][dE]G[β3hF][NMeI]-OH
# SMILES: CC[C@H](C)[C@@H](C(=O)O)N(C)C(=O)C[C@H](Cc1ccccc1)NC(=O)CNC(=O)[C@@H](CCC(=O)O)NC(=O)[C@@H](N)Cc1c(C)cc(O)cc1C
# B17: [DMT-((D)Ala)-Gly-(β-homoPhe)-(Sar)-(D-Lys)]2-DIG (peptide)
# peptide: H-[Dmt][dA]G[β3hF][Sar][dK]
# modifications: not fully specified (C-terminus); printed as [DMT-((D)Ala)-Gly-(β-homoPhe)-(Sar)-(D-Lys)]2-DIG; also: homodimer: the two D-Lys joined through DIG linker (Dimer C)
# B18: H-DMT-r-H-K-NH2 (peptide)
# peptide: H-[Dmt][dR]HK-NH2
# SMILES: Cc1cc(O)cc(C)c1C[C@H](N)C(=O)N[C@H](CCCNC(=N)N)C(=O)N[C@@H](Cc1c[nH]cn1)C(=O)N[C@@H](CCCCN)C(N)=O
# B19: H-DMT-a-hF-Nle-NH2 (peptide)
# peptide: H-[Dmt][dA][hPhe][Nle]-NH2
# SMILES: CCCC[C@H](NC(=O)[C@H](CCc1ccccc1)NC(=O)[C@@H](C)NC(=O)[C@@H](N)Cc1c(C)cc(O)cc1C)C(N)=O
# B20: H-DMT-a-hF-Sar-NH2 (peptide)
# peptide: H-[Dmt][dA][hPhe][Sar]-NH2
# SMILES: Cc1cc(O)cc(C)c1C[C@H](N)C(=O)N[C@H](C)C(=O)N[C@@H](CCc1ccccc1)C(=O)N(C)CC(N)=O
# B21: H-DMT-dTic-G-F-Sar-NH2 (peptide)
# peptide: H-[Dmt][dTic]GF[Sar]-NH2
# SMILES: Cc1cc(O)cc(C)c1C[C@H](N)C(=O)N1Cc2ccccc2C[C@@H]1C(=O)NCC(=O)N[C@@H](Cc1ccccc1)C(=O)N(C)CC(N)=O
# Biological target: T1, δ-opioid receptor (DOR), Human-ORPD1 (human, UniProt P41143 1-372)
# T1 sequence (P41143 whole entry, stated change not applied): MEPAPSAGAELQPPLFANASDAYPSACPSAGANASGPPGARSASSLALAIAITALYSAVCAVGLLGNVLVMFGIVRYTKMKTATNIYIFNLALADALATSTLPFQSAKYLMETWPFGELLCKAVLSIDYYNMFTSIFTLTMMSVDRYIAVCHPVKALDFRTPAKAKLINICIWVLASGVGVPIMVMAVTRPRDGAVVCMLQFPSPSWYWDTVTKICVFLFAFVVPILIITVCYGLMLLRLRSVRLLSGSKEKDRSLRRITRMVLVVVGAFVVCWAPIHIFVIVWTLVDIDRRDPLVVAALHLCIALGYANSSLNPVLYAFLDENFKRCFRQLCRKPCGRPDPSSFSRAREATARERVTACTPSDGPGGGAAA
# Test: cell-based or functional assay
row,Binder,DOR EC50
1,B1,≤ 1 nM
2,B2,≤ 1 nM
3,H-[Dmt][dD]G[β3hF][NMeNle]-OH [H-DMT-(D)Asp-G-bhF-N(Me)-Nle-OH],≤ 1 nM
4,B3,≤ 1 nM
5,B4,≤ 1 nM
6,B5,≤ 1 nM
7,B6,≤ 1 nM
8,B7,≤ 1 nM
9,B8,≤ 1 nM
10,B9,≤ 1 nM
11,B10,≤ 1 nM
12,B11,≤ 1 nM
13,B12,≤ 1 nM
14,B13,≤ 1 nM
15,B14,≤ 1 nM
16,B15,≤ 10 nM
17,B16,≤ 1 nM

# Biological target: T2, µ-opioid receptor (MOR), Human-ORPM1 (human, UniProt P35372 1-400)
# T2 sequence (P35372 whole entry): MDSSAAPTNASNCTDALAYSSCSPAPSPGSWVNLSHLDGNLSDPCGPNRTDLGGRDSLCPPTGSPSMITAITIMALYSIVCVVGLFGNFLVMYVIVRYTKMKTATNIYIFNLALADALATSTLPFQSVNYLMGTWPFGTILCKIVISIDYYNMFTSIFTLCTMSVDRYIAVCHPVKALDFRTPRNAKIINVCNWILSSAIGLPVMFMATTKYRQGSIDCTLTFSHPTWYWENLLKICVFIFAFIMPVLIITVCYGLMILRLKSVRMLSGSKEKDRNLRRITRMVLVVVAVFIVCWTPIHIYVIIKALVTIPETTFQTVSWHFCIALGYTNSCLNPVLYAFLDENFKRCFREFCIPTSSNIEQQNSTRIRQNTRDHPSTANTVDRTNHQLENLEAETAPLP
# Test: cell-based or functional assay
row,Binder,MOR EC50
1,B1,≤ 1 nM
2,B2,≤ 1 nM
3,H-[Dmt][dD]G[β3hF][NMeNle]-OH [H-DMT-(D)Asp-G-bhF-N(Me)-Nle-OH],≤ 1 nM
4,B3,≤ 1 nM
5,B4,≤ 1 nM
6,B5,≤ 1 nM
7,B6,≤ 1 nM
8,B7,≤ 1 nM
9,B8,≤ 1 nM
10,B9,≤ 1 nM
11,B10,≤ 1 nM
12,B11,≤ 1 nM
13,B12,≤ 10 nM
14,B13,≤ 1 nM
15,B14,≤ 1 nM
16,B15,≤ 1 nM
17,B16,≤ 10 nM

# Biological target: T1, δ-opioid receptor (DOR), Human-ORPD1
# Test: cell-based or functional assay
# Remark: another data set of the same source
row,Binder,DOR EC50
1,H-[Dmt][dA]G[β3hF][Sar][dK] (also: homodimer: two monomers joined at X5 through a D-lysine linker (Dimer A)) [[DMT-((D)Ala)-Gly-(β-homoPhe)-(Sar)]2-(D-Lys)],≤ 10 nM
2,B17,≤ 10 nM
3,H-[Dmt][dA]G[β3hF][NMeA]K (also: homodimer: two monomers joined at X5 through a lysine linker (Dimer A)) [[DMT-((D)Ala)-Gly-(β-homoPhe)-(NMe-Ala)]2-Lys],≤ 1 nM
4,H-[Dmt][dA]G[β3hF][NMeI]K (also: homodimer: two monomers joined at X5 through a lysine linker (Dimer A)) [[DMT-((D)Ala)-Gly-(β-homoPhe)-(NMe-Ile)]2-Lys],≤ 10 nM
5,H-[Dmt][dA]G[β3hF][Sar]K (also: homodimer: two monomers joined at X5 through a lysine linker (Dimer A)) [[DMT-((D)Ala)-Gly-(β-homoPhe)-(Sar)]2-Lys],≤ 1 nM

# Biological target: T2, µ-opioid receptor (MOR), Human-ORPM1
# Test: cell-based or functional assay
# Remark: another data set of the same source
row,Binder,MOR EC50
1,H-[Dmt][dA]G[β3hF][Sar][dK] (also: homodimer: two monomers joined at X5 through a D-lysine linker (Dimer A)) [[DMT-((D)Ala)-Gly-(β-homoPhe)-(Sar)]2-(D-Lys)],≤ 10 nM
2,B17,≤ 10 nM
3,H-[Dmt][dA]G[β3hF][NMeA]K (also: homodimer: two monomers joined at X5 through a lysine linker (Dimer A)) [[DMT-((D)Ala)-Gly-(β-homoPhe)-(NMe-Ala)]2-Lys],≤ 1 nM
4,H-[Dmt][dA]G[β3hF][NMeI]K (also: homodimer: two monomers joined at X5 through a lysine linker (Dimer A)) [[DMT-((D)Ala)-Gly-(β-homoPhe)-(NMe-Ile)]2-Lys],≤ 10 nM
5,H-[Dmt][dA]G[β3hF][Sar]K (also: homodimer: two monomers joined at X5 through a lysine linker (Dimer A)) [[DMT-((D)Ala)-Gly-(β-homoPhe)-(Sar)]2-Lys],≤ 1 nM

# Biological target: T1, δ-opioid receptor (DOR), Human-ORPD1
# Test: cell-based or functional assay
# Remark: another data set of the same source
row,Binder,DOR EC50
1,B18,> 200 nM
2,B19,≤ 1 nM
3,B20,≤ 1 nM
4,B21,≤ 1 nM

# Biological target: T2, µ-opioid receptor (MOR), Human-ORPM1
# Test: cell-based or functional assay
# Remark: another data set of the same source
row,Binder,MOR EC50
1,B18,≤ 50 nM
2,B19,≤ 1 nM
3,B20,≤ 1 nM
4,B21,≤ 1 nM
